According to paper PMC8163212 (Chemical Science, 2020):

Target: the molecule itself
Assay: SEC

B1: UVR8 mutant W198/250/302F (6Wd + 4Wc), on the W400F background (receptor)
chain: MAEDMAADEVTAPPRKVLIISAGASHSVALLSGDIVCSWGRGEDGQLGHGDAEDRPSPTQLSALDGHQIVSVTCGADHTVAYSQSGMEVYSWGWGDFGRLGHGNSSDLFTPLPIKALHGIRIKQIACGDSHCLAVTMEGEVQSWGRNQNGQLGLGDTEDSLVPQKIQAFEGIRIKMVAAGAEHTAAVTEDGDLYGWGFGRYGNLGLGDRTDRLVPERVTSTGGEKMSMVACGWRHTISVSYSGALYTYGFSKYGQLGHGDLEDHLIPHKLEALSNSFISQISGGWRHTMALTSDGKLYGWGFNKFGQVGVGNNLDQCSPVQVRFPDDQKVVQVSCGWRHTLAVTERNNVFAWGRGTNGQLGIGESVDRNFPKIIEALSVDGASGQHIESSNIDPSSGKSFVSPAERYAVVPDETGLTDGSSKGNGGDISVPQTDVKRVRI
binding result: binds
